PMC12796099

Target: human somatostatin receptor 5 (SSTR5) (human) (UniProt P35346)
Sequence of UniProt P35346 (P35346 whole entry): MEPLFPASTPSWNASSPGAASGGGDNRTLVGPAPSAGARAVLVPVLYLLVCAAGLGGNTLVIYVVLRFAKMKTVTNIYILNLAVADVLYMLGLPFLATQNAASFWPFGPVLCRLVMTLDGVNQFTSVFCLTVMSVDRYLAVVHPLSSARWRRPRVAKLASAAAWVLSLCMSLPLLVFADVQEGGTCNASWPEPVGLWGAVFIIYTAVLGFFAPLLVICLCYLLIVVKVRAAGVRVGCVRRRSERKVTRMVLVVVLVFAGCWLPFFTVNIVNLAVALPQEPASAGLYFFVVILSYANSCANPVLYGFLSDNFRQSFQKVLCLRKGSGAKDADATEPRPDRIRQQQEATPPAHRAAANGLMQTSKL

In the case of “SRIF-14-Sed1 periplasmic display fusion (from UniProt P61278 103-116) (ligand)”, the autocrine GPCR activation by αPre-ligand-display fusion, DCyFIR mTq2 transcriptional reporter, relative to the Ccw14 fusion (% of the activity of the Ccw14 fusion) is reported as 30.
